The results in this text go back to publication doi:10.1101/2022.08.09.503213 (bioRxiv, 2022).

For this experiment, the target named is IFT140 with C-terminal TEV site and Strep-tag II (IFT140^Strep) (human, UniProt Q96RY7 1-1462). Nature of the experiment: pull-down.
Sequence of IFT140 with C-terminal TEV site and Strep-tag II (IFT140^Strep) (Q96RY7 whole entry): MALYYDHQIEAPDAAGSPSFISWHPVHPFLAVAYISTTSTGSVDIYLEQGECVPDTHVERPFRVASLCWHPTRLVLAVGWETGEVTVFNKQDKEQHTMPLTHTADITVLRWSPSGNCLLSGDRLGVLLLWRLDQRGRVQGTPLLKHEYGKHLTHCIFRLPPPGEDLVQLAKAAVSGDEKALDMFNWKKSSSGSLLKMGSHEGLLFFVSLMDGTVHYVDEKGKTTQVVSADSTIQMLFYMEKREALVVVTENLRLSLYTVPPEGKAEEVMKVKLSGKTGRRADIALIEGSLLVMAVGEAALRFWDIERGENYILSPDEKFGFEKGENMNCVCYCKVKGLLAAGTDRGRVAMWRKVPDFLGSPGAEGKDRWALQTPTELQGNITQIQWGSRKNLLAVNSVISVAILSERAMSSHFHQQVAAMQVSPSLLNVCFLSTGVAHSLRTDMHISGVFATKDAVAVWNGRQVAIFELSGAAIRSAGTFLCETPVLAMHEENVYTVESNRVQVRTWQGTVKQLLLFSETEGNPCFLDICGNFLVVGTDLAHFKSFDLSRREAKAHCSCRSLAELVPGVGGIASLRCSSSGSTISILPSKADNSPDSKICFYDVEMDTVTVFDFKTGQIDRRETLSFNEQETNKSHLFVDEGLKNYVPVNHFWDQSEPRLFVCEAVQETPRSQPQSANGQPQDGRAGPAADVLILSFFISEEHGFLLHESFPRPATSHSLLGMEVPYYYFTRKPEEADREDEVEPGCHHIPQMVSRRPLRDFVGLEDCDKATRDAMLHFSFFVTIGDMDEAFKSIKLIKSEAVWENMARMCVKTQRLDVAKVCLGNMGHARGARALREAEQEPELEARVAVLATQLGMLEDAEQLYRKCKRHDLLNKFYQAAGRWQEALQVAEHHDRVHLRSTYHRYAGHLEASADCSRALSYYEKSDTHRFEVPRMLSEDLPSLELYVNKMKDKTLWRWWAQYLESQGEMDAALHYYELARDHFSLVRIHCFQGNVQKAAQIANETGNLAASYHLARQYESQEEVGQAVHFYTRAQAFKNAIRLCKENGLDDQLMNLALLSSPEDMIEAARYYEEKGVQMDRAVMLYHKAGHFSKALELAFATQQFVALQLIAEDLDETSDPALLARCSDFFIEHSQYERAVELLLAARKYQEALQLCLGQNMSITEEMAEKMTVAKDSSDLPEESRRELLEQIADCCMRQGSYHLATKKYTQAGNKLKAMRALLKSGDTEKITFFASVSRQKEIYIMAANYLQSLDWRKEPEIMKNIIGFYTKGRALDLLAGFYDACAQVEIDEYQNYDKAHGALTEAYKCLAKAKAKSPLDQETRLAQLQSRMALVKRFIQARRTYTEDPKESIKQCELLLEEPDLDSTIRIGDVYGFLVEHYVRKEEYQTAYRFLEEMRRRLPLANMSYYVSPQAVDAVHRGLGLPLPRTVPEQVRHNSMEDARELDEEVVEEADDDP

B1: IFT144 with C-terminal TEV site and FLAG tag (IFT144^FLAG) (natural protein, human, UniProt Q8NEZ3 1-1342, looked up)
chain: MKRIFSLLEKTWLGAPIQFAWQKTSGNYLAVTGADYIVKIFDRHGQKRSEINLPGNCVAMDWDKDGDVLAVIAEKSSCIYLWDANTNKTSQLDNGMRDQMSFLLWSKVGSFLAVGTVKGNLLIYNHQTSRKIPVLGKHTKRITCGCWNAENLLALGGEDKMITVSNQEGDTIRQTQVRSEPSNMQFFLMKMDDRTSAAESMISVVLGKKTLFFLNLNEPDNPADLEFQQDFGNIVCYNWYGDGRIMIGFSCGHFVVISTHTGELGQEIFQARNHKDNLTSIAVSQTLNKVATCGDNCIKIQDLVDLKDMYVILNLDEENKGLGTLSWTDDGQLLALSTQRGSLHVFLTKLPILGDACSTRIAYLTSLLEVTVANPVEGELPITVSVDVEPNFVAVGLYHLAVGMNNRAWFYVLGENAVKKLKDMEYLGTVASICLHSDYAAALFEGKVQLHLIESEILDAQEERETRLFPAVDDKCRILCHALTSDFLIYGTDTGVVQYFYIEDWQFVNDYRHPVSVKKIFPDPNGTRLVFIDEKSDGFVYCPVNDATYEIPDFSPTIKGVLWENWPMDKGVFIAYDDDKVYTYVFHKDTIQGAKVILAGSTKVPFAHKPLLLYNGELTCQTQSGKVNNIYLSTHGFLSNLKDTGPDELRPMLAQNLMLKRFSDAWEMCRILNDEAAWNELARACLHHMEVEFAIRVYRRIGNVGIVMSLEQIKGIEDYNLLAGHLAMFTNDYNLAQDLYLASSCPIAALEMRRDLQHWDSALQLAKHLAPDQIPFISKEYAIQLEFAGDYVNALAHYEKGITGDNKEHDEACLAGVAQMSIRMGDIRRGVNQALKHPSRVLKRDCGAILENMKQFSEAAQLYEKGLYYDKAASVYIRSKNWAKVGDLLPHVSSPKIHLQYAKAKEADGRYKEAVVAYENAKQWQSVIRIYLDHLNNPEKAVNIVRETQSLDGAKMVARFFLQLGDYGSAIQFLVMSKCNNEAFTLAQQHNKMEIYADIIGSEDTTNEDYQSIALYFEGEKRYLQAGKFFLLCGQYSRALKHFLKCPSSEDNVAIEMAIETVGQAKDELLTNQLIDHLLGENDGMPKDAKYLFRLYMALKQYREAAQTAIIIAREEQSAGNYRNAHDVLFSMYAELKSQKIKIPSEMATNLMILHSYILVKIHVKNGDHMKGARMLIRVANNISKFPSHIVPILTSTVIECHRAGLKNSAFSFAAMLMRPEYRSKIDAKYKKKIEGMVRRPDISEIEEATTPCPFCKFLLPECELLCPGCKNSIPYCIATGRHMLKDDWTVCPHCDFPALYSELKIMLNTESTCPMCSERLNAAQLKKISDCTQYLRTEEEL
Turning to B1, the binding result is recorded as “binds”.
